Experimental data taken from patent US20200071382A1 (published 2020).

Biological target: T1, BMP9 (UniProt Q9UK05 320-429)
T1 construct: Ligand injected over the captured receptor protein
T1 sequence (looked up): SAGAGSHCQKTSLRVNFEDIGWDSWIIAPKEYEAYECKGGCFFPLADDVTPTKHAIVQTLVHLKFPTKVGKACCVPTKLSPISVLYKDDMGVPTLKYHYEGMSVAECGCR
Experiment: Biacore SPR; protein captured by anti-Fc antibody, ligand injected
Procedure: These protein complexes were independently captured in the system using an anti-Fc antibody. Ligands were injected and allowed to flow over the captured receptor protein. Results are summarized in the table below, in which ligand off-rates (kd) most indicative of effective ligand traps are denoted by bold text.

B1: ENG(26-346)-Fc:Fc monomeric complex (Fc fusion)
chain: ETVHCDLQPVGPERDEVTYTTSQVSKGCVAQAPNAILEVHVLFLEFPTGPSQLELTLQASKQNGTWPREVLLVLSVNSSVFLHLQALGIPLHLAYNSSLVTFQEPPGVNTTELPSFPKTQILEWAAERGPITSAAELNDPQSILLRLGQAQGSLSFCMLEASQDMGRTLEWRPRTPALVRGCHLEGVAGHKEAHILRVLPGHSAGPRTVTVKVELSCAPGDLDAVLILQGPPYVSWLIDANHNMQIWTTGEYSFKIFPEKNIRGFKLPDTPQGLLGEARMLNASIVASFVELPLASIVSLHASSCGGRLQTSPAPIQTTPPTGGGTHTCPPCPAPELLGGPSVFLFPPKPKDTLMISRTPEVTCVVVDVSHEDPEVKFNWYVDGVEVHNAKTKPREEQYNSTYRVVSVLTVLHQDWLNGKEYKCKVSNKALPAPIEKTISKAKGQPREPQVYTLPPSRKEMTKNQVSLTCLVKGFYPSDIAVEWESNGQPENNYKTTPPVLKSDGSFFLYSKLTVDKSRWQQGNVFSCSVMHEALHNHYTQKSLSLSPGK
- Kd: > 36 nM
